Measurements as given in article PMC7710607.

Biological target: ACSL1 (UniProt P41216)
Assay: co-IP of tagged proteins, blot
Conditions: reference: wild type TBK1; sites S172

binding against the reference: stronger
Substance: TBK1 (flag-human TBK1) (from UniProt Q9UHD2) S172A
